Patent publication US20260242735A1 (UNIVERSIT T BASEL, published 2026)

Assays:
human CD33 V25S = human CD33 V25S (human, UniProt P20138 18-364); assay: flow cytometry, HEK293-T, IgG;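 note: CD33 point mutants transiently expressed, antibody binding measured by fluorescence in duplicate, background subtracted and scaled to binding on wild-type CD33 as 100%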
human CD33 W22E = human CD33 W22E (human, UniProt P20138 18-364); assay: flow cytometry, HEK293-T, IgG;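 note: CD33 point mutants transiently expressed, antibody binding measured by fluorescence in duplicate, background subtracted and scaled to binding on wild-type CD33 as 100%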
human CD33 N20D = human CD33 N20D (human, UniProt P20138 18-364); assay: flow cytometry, HEK293-T, IgG;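 note: CD33 point mutants transiently expressed, antibody binding measured by fluorescence in duplicate, background subtracted and scaled to binding on wild-type CD33 as 100%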
human CD33 P19W = human CD33 P19W (human, UniProt P20138 18-364); assay: flow cytometry, HEK293-T, IgG;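 note: CD33 point mutants transiently expressed, antibody binding measured by fluorescence in duplicate, background subtracted and scaled to binding on wild-type CD33 as 100%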
human CD33 I47G = human CD33 I47G (human, UniProt P20138 18-364); assay: flow cytometry on transfected cells, IgG
Method: (§1) An alanine scan on human CD33 was performed to the determine the residues on CD33 that are involved in binding to the antibodies investigated. […] Briefly, a mutation library of CD33 was created by high-throughput, site-directed mutagenesis. Each residue was individually mutated to alanine, with alanine codons mutated to serine. The mutant library was arrayed in 384-well microplates and transiently transfected into HEK293-T. Following transfection, cells were incubated with the indicated antibodies (IgG or Fab) at concentrations pre-determined using an independent immunofluorescence titration curve on wild type CD33. […] Binding of each antibody to each mutant clone was determined in duplicates. For each point, background fluorescence was subtracted from the raw data, which were then normalized to antibody reactivity with wild type CD33.
(§2) Antibodies were screened for binding to the human CD33 variants in IgG format. […] For each mutation, background fluorescence was subtracted from the raw data, which were then normalized to antibody reactivity with wild-type CD33.

human CD33 Y49R = human CD33 Y49R (human, UniProt P20138 18-364); assay: flow cytometry on transfected cells, IgG
Method: as §1, §2

human CD33 F44I = human CD33 F44I (human, UniProt P20138 18-364); assay: flow cytometry on transfected cells, IgG
Sequence of human CD33 F44I (P20138 18-364 F44I limits assumed): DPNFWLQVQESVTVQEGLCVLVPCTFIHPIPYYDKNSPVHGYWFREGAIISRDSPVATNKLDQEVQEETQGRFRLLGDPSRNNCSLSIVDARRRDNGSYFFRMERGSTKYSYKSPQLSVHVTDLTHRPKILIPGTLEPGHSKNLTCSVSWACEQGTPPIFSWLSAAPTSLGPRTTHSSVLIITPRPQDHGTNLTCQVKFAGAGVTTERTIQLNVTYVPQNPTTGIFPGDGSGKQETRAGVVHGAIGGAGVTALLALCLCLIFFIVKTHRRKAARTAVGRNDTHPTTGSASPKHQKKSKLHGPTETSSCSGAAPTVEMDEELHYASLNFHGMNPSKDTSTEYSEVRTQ
Method: as §1, §2

human CD33 P48G = human CD33 P48G (human, UniProt P20138 18-364); assay: flow cytometry on transfected cells, IgG
Sequence of human CD33 P48G (P20138 18-364 P48G limits assumed): as the sequence (P20138 18-364 F44I limits assumed) above, with I27F, P31G counted along it
Method: as §1, §2

human CD33 P46H = human CD33 P46H (human, UniProt P20138 18-364); assay: flow cytometry on transfected cells, IgG
Sequence of human CD33 P46H (P20138 18-364 P46H limits assumed): as the sequence (P20138 18-364 F44I limits assumed) above, with I27F, P29H counted along it
Method: as §1, §2

human CD33 Y49S = human CD33 Y49S (human, UniProt P20138 18-364); assay: flow cytometry on transfected cells, IgG
Method: as §1, §2

human CD33 F44L = human CD33 F44L (human, UniProt P20138 18-364); assay: flow cytometry on transfected cells, IgG
Method: as §1, §2

human CD33 P48V = human CD33 P48V (human, UniProt P20138 18-364); assay: flow cytometry on transfected cells, IgG
Method: as §1, §2

human CD33 Y49T = human CD33 Y49T (human, UniProt P20138 18-364); assay: flow cytometry on transfected cells, IgG
Sequence of human CD33 Y49T (P20138 18-364 Y49T limits assumed): as the sequence (P20138 18-364 F44I limits assumed) above, with I27F, Y32T counted along it
Method: as §1, §2

human CD33 P46Y = human CD33 P46Y (human, UniProt P20138 18-364); assay: flow cytometry on transfected cells, IgG
Sequence of human CD33 P46Y (P20138 18-364 P46Y limits assumed): as the sequence (P20138 18-364 F44I limits assumed) above, with I27F, P29Y counted along it
Method: as §1, §2

human CD33 I47W = human CD33 I47W (human, UniProt P20138 18-364); assay: flow cytometry on transfected cells, IgG
Method: as §1, §2

human CD33 Y49Q = human CD33 Y49Q (human, UniProt P20138 18-364); assay: flow cytometry on transfected cells, IgG
Sequence of human CD33 Y49Q (P20138 18-364 Y49Q limits assumed): as the sequence (P20138 18-364 F44I limits assumed) above, with I27F, Y32Q counted along it
Method: as §1, §2

human CD33 Y50G = human CD33 Y50G (human, UniProt P20138 18-364); assay: flow cytometry on transfected cells, IgG
Method: as §1, §2

human CD33 Y49C = human CD33 Y49C (human, UniProt P20138 18-364); assay: flow cytometry on transfected cells, IgG
Sequence of human CD33 Y49C (P20138 18-364 Y49C limits assumed): as the sequence (P20138 18-364 F44I limits assumed) above, with I27F, Y32C counted along it
Method: as §1, §2

human CD33 F44D = human CD33 F44D (human, UniProt P20138 18-364); assay: flow cytometry on transfected cells, IgG
Method: as §1, §2

human CD33 P48K = human CD33 P48K (human, UniProt P20138 18-364); assay: flow cytometry on transfected cells, IgG
Method: as §1, §2

human CD33 Y50R = human CD33 Y50R (human, UniProt P20138 18-364); assay: flow cytometry on transfected cells, IgG
Sequence of human CD33 Y50R (P20138 18-364 Y50R limits assumed): as the sequence (P20138 18-364 F44I limits assumed) above, with I27F, Y33R counted along it
Method: as §1, §2

human CD33 F44E = human CD33 F44E (human, UniProt P20138 18-364); assay: flow cytometry on transfected cells, IgG
Method: as §1, §2

human CD33 Y49G = human CD33 Y49G (human, UniProt P20138 18-364); assay: flow cytometry on transfected cells, IgG
Method: as §1, §2

human CD33 F44P = human CD33 F44P (human, UniProt P20138 18-364); assay: flow cytometry on transfected cells, IgG
Sequence of human CD33 F44P (P20138 18-364 F44P limits assumed): as the sequence (P20138 18-364 F44I limits assumed) above, with I27P counted along it
Method: as §1, §2

human CD33 I47R = human CD33 I47R (human, UniProt P20138 18-364); assay: flow cytometry on transfected cells, IgG
Sequence of human CD33 I47R (P20138 18-364 I47R limits assumed): as the sequence (P20138 18-364 F44I limits assumed) above, with I27F, I30R counted along it
Method: as §1, §2

human CD33 P48N = human CD33 P48N (human, UniProt P20138 18-364); assay: flow cytometry on transfected cells, IgG
Method: as §1, §2

human CD33 T42P = human CD33 T42P (human, UniProt P20138 18-364); assay: flow cytometry on transfected cells, IgG
Sequence of human CD33 T42P (P20138 18-364 T42P limits assumed): as the sequence (P20138 18-364 F44I limits assumed) above, with T25P, I27F counted along it
Method: as §1, §2

human CD33 Y49H = human CD33 Y49H (human, UniProt P20138 18-364); assay: flow cytometry on transfected cells, IgG
Method: as §1, §2

human CD33 Y49I = human CD33 Y49I (human, UniProt P20138 18-364); assay: flow cytometry on transfected cells, IgG
Method: as §1, §2

human CD33 T42N = human CD33 T42N (human, UniProt P20138 18-364); assay: flow cytometry on transfected cells, IgG
Method: as §1, §2

human CD33 P48I = human CD33 P48I (human, UniProt P20138 18-364); assay: flow cytometry on transfected cells, IgG
Sequence of human CD33 P48I (P20138 18-364 P48I limits assumed): as the sequence (P20138 18-364 F44I limits assumed) above, with I27F, P31I counted along it
Method: as §1, §2

human CD33 H45Y = human CD33 H45Y (human, UniProt P20138 18-364); assay: flow cytometry on transfected cells, IgG
Method: as §1, §2

human CD33 Y50S = human CD33 Y50S (human, UniProt P20138 18-364); assay: flow cytometry on transfected cells, IgG
Method: as §1, §2

human CD33 P46R = human CD33 P46R (human, UniProt P20138 18-364); assay: flow cytometry on transfected cells, IgG
Sequence of human CD33 P46R (P20138 18-364 P46R limits assumed): as the sequence (P20138 18-364 F44I limits assumed) above, with I27F, P29R counted along it
Method: as §1, §2

human CD33 I47N = human CD33 I47N (human, UniProt P20138 18-364); assay: flow cytometry on transfected cells, IgG
Sequence of human CD33 I47N (P20138 18-364 I47N limits assumed): as the sequence (P20138 18-364 F44I limits assumed) above, with I27F, I30N counted along it
Method: as §1, §2

human CD33 P48W = human CD33 P48W (human, UniProt P20138 18-364); assay: flow cytometry on transfected cells, IgG
Method: as §1, §2

human CD33 P48T = human CD33 P48T (human, UniProt P20138 18-364); assay: flow cytometry on transfected cells, IgG
Method: as §1, §2

Binder	Mean % WT Binding (human CD33 V25S)	Mean % WT Binding (human CD33 W22E)	Mean % WT Binding (human CD33 N20D)	Mean % WT Binding (human CD33 P19W)	Mean % WT Binding (human CD33 I47G)	Mean % WT Binding (human CD33 Y49R)	Mean % WT Binding (human CD33 F44I)	Mean % WT Binding (human CD33 P48G)	Mean % WT Binding (human CD33 P46H)	Mean % WT Binding (human CD33 Y49S)	Mean % WT Binding (human CD33 F44L)	Mean % WT Binding (human CD33 P48V)	Mean % WT Binding (human CD33 Y49T)	Mean % WT Binding (human CD33 P46Y)	Mean % WT Binding (human CD33 I47W)	Mean % WT Binding (human CD33 Y49Q)	Mean % WT Binding (human CD33 Y50G)	Mean % WT Binding (human CD33 Y49C)	Mean % WT Binding (human CD33 F44D)	Mean % WT Binding (human CD33 P48K)	further results
Refmab #5 (antibody, human IgG1, V domains shown, tested in IgG format) VH: QVQLVQSGAEVKKPGASVKVSCKASGYTFTNYDINWVRQAPGQGLEWIGWIYPGDGSTKYNEKFKAKATLTADTSTSTAYMELRSLRSDDTAVYYCASGYEDAMDYWGQGTTVTVSS VL: DIQMTQSPSSLSASVGDRVTINCKASQDINSYLSWFQQKPGKAPKTLIYRANRLVDGVPSRFSGSGSGQDYTLTISSLQPEDFATYYCLQYDEFPLTFGGGTKVEIK	107 % WT binding	111 % WT binding	97.1 % WT binding	85.9 % WT binding																	
Refmab #5 (antibody, human IgG1, V domains shown) VH: QVQLVQSGAEVKKPGASVKVSCKASGYTFTNYDINWVRQAPGQGLEWIGWIYPGDGSTKYNEKFKAKATLTADTSTSTAYMELRSLRSDDTAVYYCASGYEDAMDYWGQGTTVTVSS VL: DIQMTQSPSSLSASVGDRVTINCKASQDINSYLSWFQQKPGKAPKTLIYRANRLVDGVPSRFSGSGSGQDYTLTISSLQPEDFATYYCLQYDEFPLTFGGGTKVEIK					80.9 % WT binding	1 % WT binding	106 % WT binding	3.5 % WT binding	69.8 % WT binding	0.5 % WT binding	109 % WT binding	53.5 % WT binding	0.5 % WT binding	48 % WT binding	90.8 % WT binding	2.3 % WT binding	5 % WT binding	0.7 % WT binding	111 % WT binding	58.7 % WT binding	Mean % WT Binding (human CD33 Y50R): 47 % WT binding; Mean % WT Binding (human CD33 F44E): 97 % WT binding; Mean % WT Binding (human CD33 Y49G): 0.8 % WT binding; Mean % WT Binding (human CD33 F44P): 114 % WT binding; Mean % WT Binding (human CD33 I47R): 94.6 % WT binding; Mean % WT Binding (human CD33 P48N): 4.4 % WT binding; Mean % WT Binding (human CD33 T42P): 13.9 % WT binding; Mean % WT Binding (human CD33 Y49H): 2.4 % WT binding; Mean % WT Binding (human CD33 Y49I): 0.5 % WT binding; Mean % WT Binding (human CD33 T42N): 91.1 % WT binding; Mean % WT Binding (human CD33 P48I): 4 % WT binding; Mean % WT Binding (human CD33 H45Y): 94.2 % WT binding; Mean % WT Binding (human CD33 Y50S): 5.3 % WT binding; Mean % WT Binding (human CD33 P46R): 103 % WT binding; Mean % WT Binding (human CD33 I47N): 88 % WT binding; Mean % WT Binding (human CD33 P48W): 2.2 % WT binding; Mean % WT Binding (human CD33 P48T): 91.4 % WT binding

Continued, in another order:

Mean % WT Binding (human CD33 V25S)	Mean % WT Binding (human CD33 W22E)	Mean % WT Binding (human CD33 N20D)	Mean % WT Binding (human CD33 P19W)	Mean % WT Binding (human CD33 I47G)	Mean % WT Binding (human CD33 Y49R)	Mean % WT Binding (human CD33 F44I)	Mean % WT Binding (human CD33 P48G)	Mean % WT Binding (human CD33 P46H)	Mean % WT Binding (human CD33 Y49S)	Mean % WT Binding (human CD33 F44L)	Mean % WT Binding (human CD33 P48V)	Mean % WT Binding (human CD33 Y49T)	Mean % WT Binding (human CD33 P46Y)	Mean % WT Binding (human CD33 I47W)	Mean % WT Binding (human CD33 Y49Q)	Mean % WT Binding (human CD33 Y50G)	Mean % WT Binding (human CD33 Y49C)	Mean % WT Binding (human CD33 F44D)	Mean % WT Binding (human CD33 P48K)	Binder	further results
94.7 % WT binding	1.7 % WT binding	103 % WT binding	75.5 % WT binding																	Refmab #6 (antibody, human IgG1, V domains shown, tested in IgG format) VH: QVQLQQPGAEVVKPGASVKMSCKASGYTFTSYYIHWIKQTPGQGLEWVGVIYPGNDDISYNQKFQGKATLTADKSSTTAYMQLSSLTSEDSAVYYCAREVRLRYFDVWGQGTTVTVSS VL: EIVLTQSPGSLAVSPGERVTMSCKSSQSVFFSSSQKNYLAWYQQIPGQSPRLLIYWASTRESGVPDRFTGSGSGTDFTLTISSVQPEDLAIYYCHQYLSSRTFGQGTKLEIK	
				105 % WT binding	101 % WT binding	93.1 % WT binding	89 % WT binding	107 % WT binding	102 % WT binding	104 % WT binding	105 % WT binding	121 % WT binding	79.9 % WT binding	114 % WT binding	115 % WT binding	115 % WT binding	44.7 % WT binding	107 % WT binding	89.4 % WT binding	Refmab #6 (antibody, human IgG1, V domains shown) VH: QVQLQQPGAEVVKPGASVKMSCKASGYTFTSYYIHWIKQTPGQGLEWVGVIYPGNDDISYNQKFQGKATLTADKSSTTAYMQLSSLTSEDSAVYYCAREVRLRYFDVWGQGTTVTVSS VL: EIVLTQSPGSLAVSPGERVTMSCKSSQSVFFSSSQKNYLAWYQQIPGQSPRLLIYWASTRESGVPDRFTGSGSGTDFTLTISSVQPEDLAIYYCHQYLSSRTFGQGTKLEIK	Mean % WT Binding (human CD33 Y50R): 96.9 % WT binding; Mean % WT Binding (human CD33 F44E): 102 % WT binding; Mean % WT Binding (human CD33 Y49G): 121 % WT binding; Mean % WT Binding (human CD33 F44P): 88 % WT binding; Mean % WT Binding (human CD33 I47R): 96.9 % WT binding; Mean % WT Binding (human CD33 P48N): 98.4 % WT binding; Mean % WT Binding (human CD33 T42P): 9.3 % WT binding; Mean % WT Binding (human CD33 Y49H): 118 % WT binding; Mean % WT Binding (human CD33 Y49I): 113 % WT binding; Mean % WT Binding (human CD33 T42N): 93.5 % WT binding; Mean % WT Binding (human CD33 P48I): 102 % WT binding; Mean % WT Binding (human CD33 H45Y): 84.4 % WT binding; Mean % WT Binding (human CD33 Y50S): 122 % WT binding; Mean % WT Binding (human CD33 P46R): 103 % WT binding; Mean % WT Binding (human CD33 I47N): 96.6 % WT binding; Mean % WT Binding (human CD33 P48W): 87.2 % WT binding; Mean % WT Binding (human CD33 P48T): 92.6 % WT binding
